doi:10.1101/2021.10.13.464285

Target: Respiratory syncytial virus fusion (F) glycoprotein (respiratory syncytial virus, strain rA2-mK+ (parent strain A2))
Test: cryo-EM structure

Respiratory syncytial virus fusion (F) glycoprotein (natural protein)
stoichiometry N: 3
